This data set deals with MtrR-MBP (Neisseria gonorrhoeae) (UniProt P39897). Put plainly: competition EMSA. Conditions: 30 ul reaction buffer (composition not stated), room temperature; 6% native PAGE at 4 C; 2 ug MtrR-MBP or 1 ug GdhR-His.

For two sequences, binding results are on record in PMC5388806.

Sequence of MtrR-MBP (Neisseria gonorrhoeae) (P39897 whole entry): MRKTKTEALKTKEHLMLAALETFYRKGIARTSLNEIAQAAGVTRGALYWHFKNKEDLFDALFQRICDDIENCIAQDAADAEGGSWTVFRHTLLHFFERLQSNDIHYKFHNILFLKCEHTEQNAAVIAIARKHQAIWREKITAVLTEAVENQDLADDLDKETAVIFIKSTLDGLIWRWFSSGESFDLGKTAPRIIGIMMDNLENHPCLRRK

Regarding “CCGTTCCCGCCGTCAACGGCACTTACCTCGCACCGCCCCCGAAACACAGGAAAAAACTACACCAAACTACAATTTTTGTTCATGCAAATATTTGTTTTAACGGGATTTAAATGAAAGCTCCGATTCAAATCTGCCGAACCGCCCAAAAATATATTGACCTGAATATTAAAGTTTCGTAAAGTAATGCAACGTTGCTTTAATTGGTTTGACCACTATTGCCGACGATTAGAAAAATATTTTCGGAGATGTTCAATTATGGAAACTTGGGTTCAAAACTACACGGCAATCGGCG (double strand) [R3/R5 (upstream of gdhR promoter)]”, the binding entry is listed as “no binding”.

“TGCCGTTGACGGCGGGAACGGCGTGTCATTAGAATCCGCCCTGATTGGCCAGTCCAATTTGATGTTTGATGTATTTCGGAAGGGTTCTGCAGGGAATCTTTATAAAGGAGGAGTGATGAAAC (double strand) [R4/R2 (gdhR promoter and downstream)]”: the binding entry is “binds”.
